For orientation: Kd means the concentration at which binding is half-saturated.

The values below come from patent US20210269548A1 (Kyowa Kirin, published 2021).

The target of experiment [1] is T1, human CSPG5 (human, UniProt O95196 31-566).
T1 construct: Full-length gene expressed on cell membrane (Expi293F, L929); also called human CSPG5/Expi293F cells; human CSPG5/L929#09
T1 sequence: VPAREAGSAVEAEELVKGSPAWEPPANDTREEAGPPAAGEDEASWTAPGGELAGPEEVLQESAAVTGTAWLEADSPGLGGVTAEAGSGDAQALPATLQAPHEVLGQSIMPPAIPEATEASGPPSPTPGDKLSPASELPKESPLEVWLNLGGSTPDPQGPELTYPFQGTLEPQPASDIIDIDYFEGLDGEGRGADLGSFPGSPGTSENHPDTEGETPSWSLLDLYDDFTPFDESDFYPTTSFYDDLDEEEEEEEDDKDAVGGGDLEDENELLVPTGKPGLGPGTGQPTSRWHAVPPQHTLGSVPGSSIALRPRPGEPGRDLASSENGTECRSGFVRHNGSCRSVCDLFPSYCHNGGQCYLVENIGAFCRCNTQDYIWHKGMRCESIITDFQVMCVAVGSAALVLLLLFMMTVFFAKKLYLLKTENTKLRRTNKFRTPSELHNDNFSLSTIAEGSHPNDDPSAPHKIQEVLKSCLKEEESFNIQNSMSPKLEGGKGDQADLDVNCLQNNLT
The experiment is described as follows: FACS on CSPG5/Expi293F cells. The method, then:
(§1) Expi293F cells, human CSPG5/Expi293F cells, mouse CSPG5/Expi293F cells, and monkey CSPG5/Expi293F cells were separately suspended in Staining Buffer (SB) of PBS comprising 0.1% NaN₃ and 1% FBS and dispensed in a round-bottom 96-well plate (manufactured by Becton, Dickinson and Company). After centrifugation (2000 rpm, 4° C., 2 minutes), the supernatant was removed, and to the resulting pellet, 10 μg/mL of each antibody obtained in Example 2 was added to suspend the pellet, and the resulting suspension was left to stand for 30 minutes at ice temperature. After further centrifugation (2000 rpm, 4° C., 2 minutes), the supernatant was removed, and the resulting pellet was washed with SB, and thereafter, 1 μg/mL of an RPE fluorescently labeled goat anti-human antibody (manufactured by Southern Biotech, Inc.) was added thereto, and the resultant was incubated for 30 minutes at ice temperature. After washing with SB, the cells were suspended in SB, and the fluorescence intensity of each cell was measured using a flow cytometer FACS CANTO II (manufactured by Becton, Dickinson and Company). Note that as a negative control, 10 μg/mL of the anti-AVM antibody was used.

Experiment [2] deals with T2, mouse CSPG5 (mouse, UniProt Q71M36 31-566).
T2 construct: Full-length gene expressed on Expi293F cells; also called mouse CSPG5/Expi293F cells
T2 sequence: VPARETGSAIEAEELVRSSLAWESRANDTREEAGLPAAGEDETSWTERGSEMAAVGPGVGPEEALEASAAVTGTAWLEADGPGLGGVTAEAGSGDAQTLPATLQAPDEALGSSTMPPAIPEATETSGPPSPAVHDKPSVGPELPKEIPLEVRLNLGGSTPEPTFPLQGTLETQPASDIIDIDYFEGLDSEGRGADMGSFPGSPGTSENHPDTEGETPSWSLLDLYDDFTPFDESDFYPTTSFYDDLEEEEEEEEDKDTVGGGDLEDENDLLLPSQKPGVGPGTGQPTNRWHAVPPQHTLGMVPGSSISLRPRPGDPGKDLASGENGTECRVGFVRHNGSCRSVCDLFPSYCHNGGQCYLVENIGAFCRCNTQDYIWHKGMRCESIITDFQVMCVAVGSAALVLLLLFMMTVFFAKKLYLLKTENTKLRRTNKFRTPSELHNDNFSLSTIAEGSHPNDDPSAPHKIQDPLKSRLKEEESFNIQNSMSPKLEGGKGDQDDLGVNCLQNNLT
The experiment is described as follows: FACS on CSPG5/Expi293F cells. The method, then:
as §1

For experiment [3], the target named is T3, monkey CSPG5 (monkey (rhesus monkey), UniProt O95196 31-566 (human entry)).
T3 construct: Full-length gene expressed on Expi293F cells; also called monkey CSPG5/Expi293F cells; rhesus monkey CSPG5
T3 chain: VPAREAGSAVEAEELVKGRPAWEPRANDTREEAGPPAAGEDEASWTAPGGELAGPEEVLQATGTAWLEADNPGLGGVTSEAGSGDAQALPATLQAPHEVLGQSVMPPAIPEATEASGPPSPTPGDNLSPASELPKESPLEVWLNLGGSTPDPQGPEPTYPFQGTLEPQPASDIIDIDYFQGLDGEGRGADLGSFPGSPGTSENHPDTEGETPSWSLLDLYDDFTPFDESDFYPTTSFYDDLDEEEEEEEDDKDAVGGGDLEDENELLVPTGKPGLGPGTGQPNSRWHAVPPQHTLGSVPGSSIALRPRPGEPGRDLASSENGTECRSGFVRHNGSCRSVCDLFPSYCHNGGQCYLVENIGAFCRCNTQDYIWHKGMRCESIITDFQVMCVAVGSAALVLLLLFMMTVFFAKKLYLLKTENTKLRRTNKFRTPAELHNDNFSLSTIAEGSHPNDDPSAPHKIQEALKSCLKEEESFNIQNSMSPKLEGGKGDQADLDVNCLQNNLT
The experiment is described as follows: FACS on CSPG5/Expi293F cells. The method, then:
as §1

Experiment [4] has as its target mouse CSPG5-GST (mouse). The experiment is described as follows: SPR Biacore T-100, antibody captured, mouse CSPG5-GST analyte. The method, then: The affinity of the anti-CSPG5 antibodies, the CSPG5202 IgG4PE(R409K), and the AVM IgG4PE(R409K) CSPG5202 dscFv produced in Example 2 for human CSPG5 and mouse CSPG5 was measured using Biacore T-100 (GE Healthcare).
Each of the antibodies was immobilized on a […] sensor chip using a Human antibody Capture kit, and the binding ability was evaluated using human CSPG5-GST and mouse CSPG5-GST produced in Example 4 as analytes. The obtained sensorgram was analyzed with BIA evaluation software, and the dissociation constant (KD value) was calculated.

Experiment [5] addresses T1, human CSPG5. The experiment is described as follows: FACS, 10 µg/mL antibody, human CSPG5/Expi293F vs Expi293F. The method, then: as §1
(§2) The detection results were analyzed, and a mean fluorescence intensity (MFI) was calculated using a geometric mean. Further, with respect to the MFI when the concentration of each antibody was 10 μg/mL, the ratio of the MFI (mean fluorescence intensity ratio) between the human CSPG5/Expi293F cells and the Expi293F cells (parent cell line) was calculated. Also for the monkey CSPG5/Expi293F cells and the mouse CSPG5/Expi293F cells, the mean fluorescence intensity ratio relative to the Expi293F cells (parent cell line) was calculated by the same procedure, and the results are shown in Table 3.
(In flow cytometry, cells or beads pass a laser one at a time.)

The target of experiment [6] is T3, monkey CSPG5. The experiment is described as follows: FACS, 10 µg/mL antibody, monkey CSPG5/Expi293F vs Expi293F. The method, then: as §1, §2
Experiment [7] concerns the target T2, mouse CSPG5. The experiment is described as follows: FACS, 10 µg/mL antibody, mouse CSPG5/Expi293F vs Expi293F. The method, then:
as §1, §2

B1: AVM IgG4PE(R409K) CSPG5202 dscFv (bispecific antibody)
heavy: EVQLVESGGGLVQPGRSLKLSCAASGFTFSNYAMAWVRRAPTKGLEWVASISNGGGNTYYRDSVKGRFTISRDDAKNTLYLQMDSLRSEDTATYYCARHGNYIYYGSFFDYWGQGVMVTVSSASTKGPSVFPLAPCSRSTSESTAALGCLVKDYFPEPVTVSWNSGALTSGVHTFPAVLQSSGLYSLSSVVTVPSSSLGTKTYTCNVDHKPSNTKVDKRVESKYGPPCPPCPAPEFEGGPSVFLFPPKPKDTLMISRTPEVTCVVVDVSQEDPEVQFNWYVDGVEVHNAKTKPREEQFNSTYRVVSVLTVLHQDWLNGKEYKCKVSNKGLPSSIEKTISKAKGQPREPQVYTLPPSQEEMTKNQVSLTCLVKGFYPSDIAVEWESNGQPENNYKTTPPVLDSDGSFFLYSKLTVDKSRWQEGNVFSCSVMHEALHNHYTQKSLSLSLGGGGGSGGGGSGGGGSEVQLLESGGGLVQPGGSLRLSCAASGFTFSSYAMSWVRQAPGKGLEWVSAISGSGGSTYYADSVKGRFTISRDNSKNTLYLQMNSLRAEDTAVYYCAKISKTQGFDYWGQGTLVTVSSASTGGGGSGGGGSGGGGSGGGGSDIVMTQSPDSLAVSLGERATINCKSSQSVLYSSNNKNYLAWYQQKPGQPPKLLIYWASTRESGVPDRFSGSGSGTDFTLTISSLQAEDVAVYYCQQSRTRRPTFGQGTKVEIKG
light: QFVLSQPNSVSTNLGSTVKLSCKRSTGNIGSNYVSWYQQHEGRSPTTMIYRDDKRPDGVPDRFSGSIDRSSDSALLTINNVQTEDEADYFCQSYSSGINIFGGGTKLTVLGQPKAAPSVTLFPPSSEELQANKATLVCLISDFYPGAVTVAWKADSSPVKAGVETTTPSKQSNNKYAASSYLSLTPEQWKSHRSYSCQVTHEGSTVEKTVAPTECS
notes: also called anti-AVM-IgG4-CSPG5 dscFv bispecific antibody
With B1, the binding result in experiment [1], in experiment [2] and in experiment [3] was “binds” each time. Also, the dissociation constant Kd in experiment [4] was at most 10 nM.

B2: CSPG5168 scFv-hG4PE(R409K) (Fc fusion)
VH: EVQLVETGGALVQPGGSLRLSCAGSGFIFSKYEMTWVRQAPGKGLEWVSTIGSLGLKTFYTDSVKGRFTTSRDNSRDTLFLQMDNLRVEDTAIYFCVKGGIRRADYWGKGTLVTVSS
VL: EIVMTQSPATLSLSPGERATLSCRASQSVSSYLAWYQQKPGQAPRLLIYDASNRATGIPARFSGSGSGTDFTLTISSLEPEDFAVYYCQQRSNWPLTFGGGTKVEIK
notes: also called anti-CSPG5 scFv-Fc antibody
In the case of B2, the results for the “Mean fluorescence intensity ratio” value in experiment [5], in experiment [6] and in experiment [7] were 5.46 ratio to parent cell line, 3.36 ratio to parent cell line and 5.81 ratio to parent cell line, respectively. In experiment [4], this molecule came in with a Kd of at most 10 nM.
